Test results taken from patent US20210163595A1.

What was measured:
[1] = biological target: human PD-1 expressed on the cell surface (human) (UniProt Q15116); experiment: cell-based or functional assay
[2] = biological target: human PD-1 expressed on the cell surface (human) (UniProt Q15116); experiment: flow cytometry on CHO cells expressing human PD-1; negative control; fit value of a flat curve; no unit in the table
[3] = biological target: cyno PD-1 expressed on cells (cynomolgus monkey) (UniProt B0LAJ3); experiment: flow cytometry on CHO cells expressing cyno PD-1; negative control; fit value of a flat curve; no unit in the table
UniProt B0LAJ3, sequence (B0LAJ3 entry or part of it limits assumed): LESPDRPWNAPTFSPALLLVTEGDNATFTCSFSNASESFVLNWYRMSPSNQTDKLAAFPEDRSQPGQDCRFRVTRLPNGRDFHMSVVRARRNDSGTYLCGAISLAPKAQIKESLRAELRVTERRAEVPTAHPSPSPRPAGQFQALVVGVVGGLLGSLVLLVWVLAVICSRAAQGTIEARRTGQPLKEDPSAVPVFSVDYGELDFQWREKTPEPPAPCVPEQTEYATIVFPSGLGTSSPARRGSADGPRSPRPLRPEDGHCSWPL

UniProt Q15116, sequence (Q15116 25-198 limits assumed): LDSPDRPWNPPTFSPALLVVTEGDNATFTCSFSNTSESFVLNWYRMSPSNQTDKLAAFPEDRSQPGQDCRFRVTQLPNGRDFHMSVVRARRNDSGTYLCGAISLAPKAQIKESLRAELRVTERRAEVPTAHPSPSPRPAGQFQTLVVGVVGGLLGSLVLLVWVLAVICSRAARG

Substance | IL-17 and IFN-γ levels, human whole blood assay (EC50) [1] | LogEC50 [2] | LogEC50 [3]
human IgG Fc fragment | > 100 nM |  | 
huIgG1 Fc |  | -7.75 | -6.89
